This note sets out measurements from patent publication US20240101663A1.

The target in test [1] is T1, CCDC112 recombinant protein (coiled-coil domain-containing protein 112) (human) (UniProt Q8NEF3).
T1 sequence: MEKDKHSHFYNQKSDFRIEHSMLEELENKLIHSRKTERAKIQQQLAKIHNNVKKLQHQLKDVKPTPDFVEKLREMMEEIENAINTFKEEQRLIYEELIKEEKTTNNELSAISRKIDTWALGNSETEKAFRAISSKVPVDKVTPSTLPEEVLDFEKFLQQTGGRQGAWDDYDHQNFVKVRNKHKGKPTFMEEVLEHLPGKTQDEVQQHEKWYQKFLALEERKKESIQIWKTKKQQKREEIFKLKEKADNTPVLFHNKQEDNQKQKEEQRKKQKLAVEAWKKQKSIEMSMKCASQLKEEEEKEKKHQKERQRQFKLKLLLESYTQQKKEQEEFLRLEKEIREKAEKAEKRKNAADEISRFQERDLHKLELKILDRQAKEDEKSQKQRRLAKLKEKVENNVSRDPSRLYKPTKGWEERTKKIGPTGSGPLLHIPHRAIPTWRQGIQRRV
Put plainly: ELISA, coated CCDC112, LILRB2-hFc, 0 ug/mL CCDC112 antibody; number over the bar. In general terms: An ELISA detects its analyte on a solid surface through an enzyme-linked reagent.

Test [2] addresses CCDC112 on HCT116 tumor cells (including HCT116 cells stably overexpressing CCDC112) (human) (UniProt Q8NEF3). The test can be described thus: flow cytometry on HCT116 cells overexpressing CCDC112; ambiguous fit of a flat control curve (see non_binding); table gives no unit, unit from the x axis. A general note: A flow cytometer gives signals particle by particle.

Chain of LILRB2-hFc (LILRB2 extracellular region protein fragment labeled with hFc) (Q8N423 22-460): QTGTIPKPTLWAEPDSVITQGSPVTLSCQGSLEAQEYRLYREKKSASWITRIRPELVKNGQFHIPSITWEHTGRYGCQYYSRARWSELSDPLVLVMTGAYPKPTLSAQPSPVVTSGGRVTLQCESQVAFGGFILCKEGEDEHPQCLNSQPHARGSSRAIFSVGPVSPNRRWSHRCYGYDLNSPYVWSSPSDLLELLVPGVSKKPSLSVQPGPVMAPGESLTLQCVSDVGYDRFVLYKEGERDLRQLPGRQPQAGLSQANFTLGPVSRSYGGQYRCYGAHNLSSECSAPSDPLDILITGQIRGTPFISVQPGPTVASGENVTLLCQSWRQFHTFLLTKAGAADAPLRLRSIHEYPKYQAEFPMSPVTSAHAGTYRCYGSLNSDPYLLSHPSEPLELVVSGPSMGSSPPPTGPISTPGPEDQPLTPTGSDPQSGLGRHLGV

Consider “LILRB2-hFc (LILRB2 extracellular region protein fragment labeled with hFc) (from UniProt Q8N423 22-460) (Fc fusion)”, for which, in test [1], the OD450 amounted to 1.58 OD450. In turn, mIgG1 (antibody) gave an EC50 in test [2] of 44.9 nM. This counts as double-digit nanomolar.

For orientation: EC50 means the concentration giving half of the maximal effect.
